This is an account of results in PMC11701221, “WhiA transcription factor provides feedback loop between translation and energy production in a genome-reduced bacterium” (Frontiers in Microbiology, 2024).

Data set [1] has as its target T1, Mgal-WhiA (Mycoplasmoides gallisepticum, UniProt A0A0F6CKV5).
T1 construct: E. coli BL21-Gold (DE3); monomer without DNA; Cy5 NHS-ester labelled for ATP MST
T1 sequence (A0A0F6CKV5 1-295): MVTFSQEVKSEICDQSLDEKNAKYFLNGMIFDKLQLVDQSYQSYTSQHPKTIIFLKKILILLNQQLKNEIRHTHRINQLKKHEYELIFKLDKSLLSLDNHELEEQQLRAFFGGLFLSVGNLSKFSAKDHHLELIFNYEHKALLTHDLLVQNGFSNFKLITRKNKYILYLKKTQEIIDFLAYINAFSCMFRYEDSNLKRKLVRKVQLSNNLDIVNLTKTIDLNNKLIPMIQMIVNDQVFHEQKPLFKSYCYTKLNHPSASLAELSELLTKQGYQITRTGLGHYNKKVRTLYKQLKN
As to the kind of experiment: microscale thermophoresis, Cy5-labelled protein, Hill fit. The format is binding. A general note: In MST a laser heats a spot of the sample, and binding alters the fluorescence response.

A further data set has as its target Mgal-WhiA Lys-216 (Mycoplasma gallisepticum S6, UniProt A0A0F6CKV5 1-295, K217G). As to the kind of experiment: MST; EMSA: 20 mM carbonate pH 9.8, 6% glycerol, 37 C 10 min, gel at 10 C; MST: PBS (10 mM Na phosphate pH 7.4, 140 mM NaCl, 3 mM KCl), 0.05% Tween-20, 50 mM imidazole, 50 nM duplex, 20 C. Particulars: protein: recombinant; label: 5' FAM (EMSA) or HEX (MST) on strand 1; blunt.

The target in another data set is Mgal-WhiA Ser-258 (Mycoplasma gallisepticum S6, UniProt A0A0F6CKV5 1-295, S259G). The description is as above. The following applies: protein: recombinant; label: 5' FAM (EMSA) or HEX (MST) on strand 1; blunt.
For data set [2], the target named is T2, Mgal-WhiA (Mycoplasma gallisepticum S6, UniProt A0A0F6CKV5 1-295). The data set is described as follows: EMSA; 1 mM ATP; total binding; unit not printed (nM implied); EMSA: 20 mM carbonate pH 9.8, 6% glycerol, 37 C 10 min, gel at 10 C; MST: PBS (10 mM Na phosphate pH 7.4, 140 mM NaCl, 3 mM KCl), 0.05% Tween-20, 50 mM imidazole, 50 nM duplex, 20 C. Particulars: protein: recombinant, blunt.

Data set [3] concerns the target T2, Mgal-WhiA. The data set is described as follows: MST; 1 mM ATP; n = 1; multistep curve; EMSA: 20 mM carbonate pH 9.8, 6% glycerol, 37 C 10 min, gel at 10 C; MST: PBS (10 mM Na phosphate pH 7.4, 140 mM NaCl, 3 mM KCl), 0.05% Tween-20, 50 mM imidazole, 50 nM duplex, 20 C. The following applies: protein: recombinant; label: 5' FAM (EMSA) or HEX (MST) on strand 1; blunt. (In general: In EMSA bound probe runs differently from free probe, usually more slowly.)

For data set [4], the target named is T2, Mgal-WhiA. The data set is described as follows: EMSA; no ATP; monomer complex; EMSA: 20 mM carbonate pH 9.8, 6% glycerol, 37 C 10 min, gel at 10 C; MST: PBS (10 mM Na phosphate pH 7.4, 140 mM NaCl, 3 mM KCl), 0.05% Tween-20, 50 mM imidazole, 50 nM duplex, 20 C. Particulars: protein: recombinant; label: 5' FAM (EMSA) or HEX (MST) on strand 1; blunt.
A further data set has as its target Mgal-WhiA Lys-170 (Mycoplasma gallisepticum S6, UniProt A0A0F6CKV5 1-295, K171G). The data set is described as follows: EMSA; dimeric complex favoured; EMSA: 20 mM carbonate pH 9.8, 6% glycerol, 37 C 10 min, gel at 10 C; MST: PBS (10 mM Na phosphate pH 7.4, 140 mM NaCl, 3 mM KCl), 0.05% Tween-20, 50 mM imidazole, 50 nM duplex, 20 C. Particulars: protein: recombinant; label: 5' FAM (EMSA) or HEX (MST) on strand 1; blunt.

Data set [5] concerns the target T2, Mgal-WhiA. As to the kind of experiment: EMSA; 1 mM ATP; monomer complex; EMSA: 20 mM carbonate pH 9.8, 6% glycerol, 37 C 10 min, gel at 10 C; MST: PBS (10 mM Na phosphate pH 7.4, 140 mM NaCl, 3 mM KCl), 0.05% Tween-20, 50 mM imidazole, 50 nM duplex, 20 C. Particulars: protein: recombinant; label: 5' FAM (EMSA) or HEX (MST) on strand 1; blunt.
The target in data set [6] is T2, Mgal-WhiA. As to the kind of experiment: EMSA; no ATP; total binding; EMSA: 20 mM carbonate pH 9.8, 6% glycerol, 37 C 10 min, gel at 10 C; MST: PBS (10 mM Na phosphate pH 7.4, 140 mM NaCl, 3 mM KCl), 0.05% Tween-20, 50 mM imidazole, 50 nM duplex, 20 C. Particulars: protein: recombinant, blunt.
Data set [7] deals with T2, Mgal-WhiA. As to the kind of experiment: MST; no ATP; Hill n = 1.8 ± 0.2; EMSA: 20 mM carbonate pH 9.8, 6% glycerol, 37 C 10 min, gel at 10 C; MST: PBS (10 mM Na phosphate pH 7.4, 140 mM NaCl, 3 mM KCl), 0.05% Tween-20, 50 mM imidazole, 50 nM duplex, 20 C. The following applies: protein: recombinant; label: 5' FAM (EMSA) or HEX (MST) on strand 1; blunt.
The target of data set [8] is T2, Mgal-WhiA. As to the kind of experiment: EMSA; monomer complex; printed as without ATP, order probably swapped (1 mM ATP likely); EMSA: 20 mM carbonate pH 9.8, 6% glycerol, 37 C 10 min, gel at 10 C; MST: PBS (10 mM Na phosphate pH 7.4, 140 mM NaCl, 3 mM KCl), 0.05% Tween-20, 50 mM imidazole, 50 nM duplex, 20 C. The following applies: protein: recombinant; label: 5' FAM on strand 1; blunt.

Data set [9] deals with T2, Mgal-WhiA. The data set is described as follows: EMSA; monomer complex; printed as with ATP, order probably swapped (no ATP likely); EMSA: 20 mM carbonate pH 9.8, 6% glycerol, 37 C 10 min, gel at 10 C; MST: PBS (10 mM Na phosphate pH 7.4, 140 mM NaCl, 3 mM KCl), 0.05% Tween-20, 50 mM imidazole, 50 nM duplex, 20 C. The following applies: protein: recombinant; label: 5' FAM on strand 1; blunt.

Data set [10] concerns the target T2, Mgal-WhiA. As to the kind of experiment: FRET; with Q3 core duplex; strong quenching; EMSA: 20 mM carbonate pH 9.8, 6% glycerol, 37 C 10 min, gel at 10 C; MST: PBS (10 mM Na phosphate pH 7.4, 140 mM NaCl, 3 mM KCl), 0.05% Tween-20, 50 mM imidazole, 50 nM duplex, 20 C. Particulars: protein: recombinant; label: 5' 6-FAM on strand 1; blunt.
In data set [11] the target is T2, Mgal-WhiA. The data set is described as follows: MST; 1 mM ATP; multistep curve, conflicts with EMSA; EMSA: 20 mM carbonate pH 9.8, 6% glycerol, 37 C 10 min, gel at 10 C; MST: PBS (10 mM Na phosphate pH 7.4, 140 mM NaCl, 3 mM KCl), 0.05% Tween-20, 50 mM imidazole, 50 nM duplex, 20 C. The following applies: protein: recombinant; label: 5' FAM (EMSA) or HEX (MST) on strand 1; blunt.

The mark [12] stands for this setting: label: 5' FAM (EMSA) or HEX (MST) on strand 1.

Numbering of substitutions follows the chain as printed.

Molecule `Nc1ncnc2c1ncn2[C@@H]1O[C@H](COP(=O)(O)OP(=O)(O)OP(=O)(O)O)[C@@H](O)[C@H]1O` [ATP] gave a Kd on Mgal-WhiA [1] of 5000 ± 100 µM.

B1: rpsJ WT (dsDNA)
DNA 1: AAAGATTGCTGATACACCAAAAACCGTTGTCAAGTATCAG
DNA 2: CTGATACTTGACAACGGTTTTTGGTGTATCAGCAATCTTT
On to B1, for which the Kd with Mgal-WhiA Lys-216 was found to be 1.7 ± 0.1 µM; in the data set with Mgal-WhiA Ser-258, 2.6 ± 0.2 µM; in the data set with Mgal-WhiA [2] (setting [12]) it was 0.68 ± 0.09 µM; with Mgal-WhiA [3], 0.088 ± 0.012 µM; with Mgal-WhiA [4] it was 0.61 ± 0.1 µM; with Mgal-WhiA [5] it was 0.24 ± 0.07 µM. The Kd with Mgal-WhiA [6] (setting [12]) came to 0.7 ± 0.08 µM; with Mgal-WhiA [7] it was 0.7 ± 0.1 µM. Besides, in the data set with Mgal-WhiA Lys-170, the binding result was “binds”.

B2: Mut1 (dsDNA)
DNA 1: B1 DNA 1 with G26A, T27G, T28A, G29C
DNA 2: B1 DNA 2 with C12G, A13T, A14C, C15T
For B2, the Kd with Mgal-WhiA [8] was determined as 0.29 ± 0.18 µM; with Mgal-WhiA [9] it was 0.85 ± 0.13 µM; with Mgal-WhiA [2] (label: 5' FAM on strand 1), 0.43 ± 0.09 µM; in the data set with Mgal-WhiA [6] (label: 5' FAM on strand 1), 0.75 ± 0.03 µM.

B3: WhiA-F1 (aux half-site) (dsDNA)
DNA 1: AACCGTTGTCAAGTATC
DNA 2: GATACTTGACAACGGTT
B3: in the data set with Mgal-WhiA [10], the binding result is reported as “binds”.

B4: Negative control (plsC promoter) (dsDNA)
DNA 1: AGCGATAAGTTTTACGAATTAAGTCGTTTATTATATAATA
DNA 2: TATTATATAATAAACGACTTAATTCGTAAAACTTATCGCT
On to B4, for which the Kd in the data set with Mgal-WhiA [11] amounted to 0.12 ± 0.05 µM.

What is called Kd is the equilibrium constant for the complex coming apart.
